Laboratory results reported in IntAct's records for PubMed 25752543.

B1: Vascular endothelial growth factor C (Mus musculus), P97953-1 (parent)
chain: MHLLCFLSLACSLLAAALIPSPREAPATVAAFESGLGFSEAEPDGGEVKAFEGKDLEEQLRSVSSVDELMSVLYPDYWKMYKCQLRKGGWQQPTLNTRTGDSVKFAAAHYNTEILKSIDNEWRKTQCMPREVCIDVGKEFGAATNTFFKPPCVSVYRCGGCCNSEGLQCMNTSTGYLSKTLFEITVPLSQGPKPVTISFANHTSCRCMSKLDVYRQVHSIIRRSLPATLPQCQAANKTCPTNYVWNNYMCRCLAQQDFIFYSNVEDDSTNGFHDVCGPNKELDEDTCQCVCKGGLRPSSCGPHKELDRDSCQCVCKNKLFPNSCGANREFDENTCQCVCKRTCPRNQPLNPGKCACECTENTQKCFLKGKKFHHQTCSCYRRPCANRLKHCDPGLSFSEEVCRCVPSYWKRPHLN
partner: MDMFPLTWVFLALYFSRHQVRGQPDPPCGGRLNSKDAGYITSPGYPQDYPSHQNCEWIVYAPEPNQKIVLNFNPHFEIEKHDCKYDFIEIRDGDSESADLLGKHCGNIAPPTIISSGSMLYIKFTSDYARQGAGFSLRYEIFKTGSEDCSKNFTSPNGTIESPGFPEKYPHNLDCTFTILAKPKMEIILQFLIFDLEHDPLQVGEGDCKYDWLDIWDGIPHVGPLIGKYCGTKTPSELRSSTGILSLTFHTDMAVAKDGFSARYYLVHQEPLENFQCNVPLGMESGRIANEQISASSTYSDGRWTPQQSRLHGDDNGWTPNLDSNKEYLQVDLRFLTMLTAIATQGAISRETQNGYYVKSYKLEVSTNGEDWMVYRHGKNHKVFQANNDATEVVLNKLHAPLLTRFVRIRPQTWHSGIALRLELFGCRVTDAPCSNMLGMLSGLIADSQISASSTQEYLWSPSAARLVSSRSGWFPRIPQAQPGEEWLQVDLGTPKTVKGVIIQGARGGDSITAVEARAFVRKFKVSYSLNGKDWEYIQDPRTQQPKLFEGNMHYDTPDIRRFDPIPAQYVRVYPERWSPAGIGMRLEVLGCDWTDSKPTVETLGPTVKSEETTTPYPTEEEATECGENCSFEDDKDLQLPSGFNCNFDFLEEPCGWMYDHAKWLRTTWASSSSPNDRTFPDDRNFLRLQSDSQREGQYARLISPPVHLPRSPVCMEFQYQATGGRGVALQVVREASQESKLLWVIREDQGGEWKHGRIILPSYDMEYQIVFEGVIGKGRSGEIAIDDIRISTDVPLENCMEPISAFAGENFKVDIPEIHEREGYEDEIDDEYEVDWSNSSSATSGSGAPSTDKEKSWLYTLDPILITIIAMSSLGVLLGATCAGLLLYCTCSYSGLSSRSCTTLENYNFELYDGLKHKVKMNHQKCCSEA
B2: Neuropilin-2 (Homo sapiens), O60462 (parent)
chain: B1 partner
partner: B1 chain

Variants of: B1
Settings: with nrp2_human NRP2, O60462

Variant | effect of a mutation on the interaction
MHLLCFLSLACSLLAAALIPSPREAPATVAAFESGLGFSEAEPDGGEVKAFEGKDLEEQLRSVSSVDELMSVLYPDYWKMYKCQLRKGGWQQPTLNTRTGDSVKFAAAHYNTEILKSIDNEWRKTQCMPREVCIDVGKEFGAATNTFFKPPCVSVYRCGGCCNSEGLQCMNTSTGYLSKTLFEITVPLSQGPKPVTISFANHTSCRCMSKLDVYRQVHSIIRESLPATLPQCQAANKTCPTNYVWNNYMCRCLAQQDFIFYSNVEDDSTNGFHDVCGPNKELDEDTCQCVCKGGLRPSSCGPHKELDRDSCQCVCKNKLFPNSCGANREFDENTCQCVCKRTCPRNQPLNPGKCACECTENTQKCFLKGKKFHHQTCSCYRRPCANRLKHCDPGLSFSEEVCRCVPSYWKRPHLN [R223E] | decreasing interaction strength

Variants of: B2
Settings: with Vegfc

Variant | effect of a mutation on the interaction
T319R | disrupting interaction strength
